Several values for one entry are separate records, joined by “and”; a condition that tells them apart may be missing. Identical values can stand only once.
Settings: whole UniProt chain shown; for Tm / unfolding enthalpy (calorimetric): Thermal
[1] = Phaseolus vulgaris, pH 7, 25 °C, GdnHCl, CD, Potassium phosphate 50 mM, Na2SO4 0.5 M, reversible: yes
[2] = Phaseolus vulgaris, pH 7, 25 °C, GdnHCl, Fluorescence, Potassium phosphate 50 mM, Na2SO4 0.5 M, reversible: yes
[3] = Pseudomonas aeruginosa (strain ATCC 15692 / DSM 22644 / CIP 104116 / JCM 14847 / LMG 12228 / 1C / PRS 101 / PAO1), pH 7, 20 °C, GdnHCl, CD, phosphate 5 mM, reversible: yes
[4] = Pseudomonas aeruginosa (strain ATCC 15692 / DSM 22644 / CIP 104116 / JCM 14847 / LMG 12228 / 1C / PRS 101 / PAO1), pH 8, DSC, Tris-HCl 10 mM, NaCl 200 mM, reversible: yes
[5] = Niallia circulans, pH 6, DSC, HEPES 100 mM, reversible: No
[6] = Niallia circulans, pH 8.5, DSC, HEPES 100 mM, reversible: No
[7] = Niallia circulans, pH 10, DSC, CHESS 100 mM, reversible: No
[8] = Mus musculus, pH 4, 25 °C, GdnHCl, CD, Sodium acetate 10 mM, reversible: yes
[9] = Mus musculus, pH 4, 25 °C, Urea, CD, Sodium acetate 10 mM, reversible: yes
[10] = Mus musculus, pH 7.4, 25 °C, Urea, CD, Tris-HCl 10 mM, reversible: yes

B1: Serine proteinase inhibitor IA-1 wild type, Q7M4T6 (protein)
chain: SAGKFIVIFKNDVSEDKIRETKDEVIAEGGTITNEYNMPGMKGFAGELTPQSLTKFQGLQGDLIDSIEEDGIVTTQ
With B1 as the protein, how does the Tm (Pleurotus ostreatus, pH 7, CD, sodium phosphate 50 mM) read?
The Tm was 59 °C.

B2: Plastocyanin wild type, P00287 (protein)
chain: LEVLLGSGDGSLVFVPSEFSVPSGEKIVFKNNAGFPHNVVFDEDEIPAGVDAVKISMPEEELLNAPGETYVVTLDTKGTYSFYCSPHQGAGMVGKVTVN
With B2 as the protein, how does the denaturant m value [1] read?
The denaturant m value was 2.7 kcal/mol/M.

What about the “denaturant midpoint (higher = more stable)” value (from here on “denaturant midpoint”) [1] of the same protein?
The value was 2.1 M.

And the unfolding free energy [1]?
The unfolding free energy was 5.8 kcal/mol.

And the denaturant m value [2]?
The denaturant m value was 2.5 kcal/mol/M.

What about the “denaturant midpoint” value [2] of the same protein?
Its value is 2.1 M.

What about the unfolding free energy [2] of the same protein?
Its unfolding free energy is 5.3 kcal/mol.

B3: Azurin wild type, P00282 (protein)
chain: MLRKLAAVSLLSLLSAPLLAAECSVDIQGNDQMQFNTNAITVDKSCKQFTVNLSHPGNLPKNVMGHNWVLSTAADMQGVVTDGMASGLDKDYLKPDDSRVIAHTKLIGSGEKDSVTFDVSKLKEGEQYMFFCTFPGHSALMKGTLTLK
With B3 as the protein, how does the denaturant m value [3] read?
Its denaturant m value is 4.18 kcal/mol/M.

And the “denaturant midpoint” value [3]?
Its value is 1.7 M.

What about the unfolding free energy [3] of the same protein?
Its unfolding free energy is 6.96 kcal/mol.

What about the unfolding free energy (Pseudomonas aeruginosa (strain ATCC 15692 / DSM 22644 / CIP 104116 / JCM 14847 / LMG 12228 / 1C / PRS 101 / PAO1), pH 7.5, 40 °C, GdnHCl, Fluorescence, Tris Cl 2 mM, reversible: Yes) of the same protein?
Its unfolding free energy is 8.6 kcal/mol.

And the Tm [4]?
Its Tm is 62 °C.

And the “unfolding enthalpy (calorimetric)” value [4]?
Its value is 165 kcal/mol.

B4: wild type, P95467 (protein)
chain: MKKALIASTALLLTAGVAAADVKISGYGRTGVIYYENDSDVNESRVQSRLRMNIDASSSTDSGVDFGARFRLQWDQGEEGEAQTNAGKLWVSAQGFTVEVGNVDTAFASNGLIYETGLGSYDRSVGFSAVTGAFFAYDSNGYGIDEVDRVGIRALYTLGDLTLQASYVDPDQSGTVIGVEEEFGFSVDYTWNERLELSAAAAFNGAGIDGNDIYFLGARYAVMDNARIGLNFVDAGDEEDGYDGKTIALYGDYTLADGRTNLEAYIANNDRDSNETDNAFGIGVNYDLGGARLGASLQRDYAENVTADFGVRFEF
With B4 as the protein, how does the Tm (Paracoccus denitrificans, pH 1.5, CD, Unknown, reversible: No) read?
The Tm was 78.5 °C.

What about the Tm (Paracoccus denitrificans, pH 4, CD, Unknown, reversible: No) of the same protein?
Its Tm is 82.6 °C.

And the Tm (Paracoccus denitrificans, pH 8, Absorbance, Tris-HCl 50 mM, NaCl 100 mM, reversible: no)?
Its Tm is 86.2 °C.

What about the Tm (Paracoccus denitrificans, pH 8, CD, Unknown, reversible: No) of the same protein?
The Tm was 86.2 °C.

What about the Tm (Paracoccus denitrificans, pH 10, CD, Unknown, reversible: No) of the same protein?
Its Tm is 86.2 °C.

B5: Phosphoserine aminotransferase wild type, Q59196 (protein)
chain: MSKRAYNFNAGPAALPLEVLERAQAEFVDYQHTGMSIMEMSHRGAVYEAVHNEAQARLLALLGNPTGYKVLFIQGGASTQFAMIPMNFLKEGQTANYVMTGSWASKALKEAKLIGDTHVAASSEASNYMTLPKLQEIQLQDNAAYLHLTSNETIEGAQFKAFPDTGSVPLIGDMSSDILSRPFDLNQFGLVYAGAQKNLGPSGVTVVIVREDLVAESPKHLPTMLRYDTYVKNNSLYNTPPSFGIYMVNEVLKWIEERGGLEGVQQANRKKASLIYDAIDQSGGFYRGCVDVDSRSDMNITFRLASEELEKEFVKASEQEGFVGLKGHRSVGGLRASIYNAVPYESCEALVQFMEHFKRSRG
For B5, which Tm [5] is on record?
Its Tm is 71 °C.

And the “unfolding enthalpy (calorimetric)” value [5]?
Its value is 288 kcal/mol.

And the Tm [6]?
The Tm was 58.4 °C.

What about the “unfolding enthalpy (calorimetric)” value [6] of the same protein?
Its value is 121 kcal/mol.

And the Tm [7]?
Its Tm is 58 °C.

What about the “unfolding enthalpy (calorimetric)” value [7] of the same protein?
Its value is 124 kcal/mol.

B6: Harpin HrpZ wild type, P35674 (protein)
chain: MQSLSLNSSSLQTPAMALVLVRPEAETTGSTSSKALQEVVVKLAEELMRNGQLDDSSPLGKLLAKSMAADGKAGGGIEDVIAALDKLIHEKLGDNFGASADSASGTGQQDLMTQVLNGLAKSMLDDLLTKQDGGTSFSEDDMPMLNKIAQFMDDNPAQFPKPDSGSWVNELKEDNFLDGDETAAFRSALDIIGQQLGNQQSDAGSLAGTGGGLGTPSSFSNNSSVMGDPLIDANTGPGDSGNTRGEAGQLIGELIDRGLQSVLAGGGLGTPVNTPQTGTSANGGQSAQDLDQLLGGLLLKGLEATLKDAGQTGTDVQSSAAQIATLLVSTLLQGTRNQAAA
Which “unfolding enthalpy (calorimetric)” value (Pseudomonas syringae pv. syringae, pH 7.5, CD, Sodium phosphate 5mM) does the source give for B6 here?
The value was 33.8 kcal/mol and 58.3 kcal/mol.

B7: Interleukin-6 wild type, P08505 (protein)
chain: MKFLSARDFHPVAFLGLMLVTTTAFPTSQVRRGDFTEDTTPNRPVYTTSQVGGLITHVLWEIVEMRKELCNGNSDCMNNDDALAENNLKLPEIQRNDGCYQTGYNQEICLLKISSGLLEYHSYLEYMKNNLKDNKKDKARVLQRDTETLIHIFNQEVKDLHKIVLPTPISNALLTDKLESQKEWLRTKTIQFILKSLEEFLKVTLRSTRQT
What does the source list for B7?
denaturant m value [8]: 0.7 kcal/mol/M; denaturant midpoint (higher = more stable) [8]: 2.7 M; unfolding free energy [8]: 1.8 kcal/mol; denaturant m value [9]: 1.9 kcal/mol/M; denaturant midpoint (higher = more stable) [9]: 3.6 M; unfolding free energy [9]: 6.9 kcal/mol; unfolding free energy (Mus musculus, pH 4, 25 °C, Urea, CD, Sodium acetate 10 mM): 6.8 kcal/mol; unfolding free energy (Mus musculus, pH 4, 25 °C, Urea, Fluorescence, sodium acetate 0.5 M): 6 kcal/mol; denaturant m value [10]: 0.7 kcal/mol/M; denaturant midpoint (higher = more stable) [10]: 4.8 M; unfolding free energy [10]: 3.4 kcal/mol
